From patent US20210363247A1, “Novel Treatments of Glaucoma” (The Regents of the University of California, priority 2019, published 2021)
“Also recorded” adds a separate entry of the source.

What was measured:
[1] = test system: human Schlemm's canal cells; assay: tube formation of human Schlemm's canal cells; type: cell-based; settings: in vitro; vs scrambled siRNA, isotype control or vehicle control of ethanol (0.07%); *P<0.05
From the text: FIGS. 1A-G. (A-C) Real-time quantitative PCR data showing the expression levels of FZD5, ROR1 and FZD2 in human Schlemm's canal cells are regulated by sheer stress (A), Wnt5a intervention by small interference RNAs (siRNAs) (B), or Wnt5a stimulation (C). (D and E) Summarized data showing that tube formation of human Schlemm's canal cells was inhibited by FZD5 siRNA (D) or ROR1 siRNA (E), respectively. Scrambled siRNA was used as negative control. *P<0.05. (F and G) Representative images showing that tube formation of human Schlemm's canal cells are regulated by the intervention of FZD5 (F) or ROR1 (G) via siRNAs. *P<0.05. […]
(§1) In exemplary models vivo data were obtained using well-established mouse model of glaucoma with laser-induced occlusion of episcleral veins (Zhang L, et al. Establishment and Characterization of an Acute Model of Ocular Hypertension by Laser-Induced Occlusion of Episcleral Veins. Invest Ophthalmol Vis Sci. 2017 Aug. 1; 58(10):3879-3886). […] Central corneal thickness and RNFL were measured on Day 3 or Day 7 by in vivo OCT, respectively. […]

rabbit = rabbit model, inhibitor delivered locally by eye drops, IOP; type: in vivo
From the text: (§2) These protocols employ two different antibodies: anti-human WNTSA antibody produced in rabbit purified immunoglobulin, buffered aqueous solution (Sigma-Aldrich SAB1411396), and an anti-human WNTSA monoclonal antibody produced in mouse clone 6F2, ascites fluid (Sigma-Aldrich SAB5300183), although other Wnt5a antibodies can be used, e.g. Hanaki et al., Mol Cancer Ther 11(2) February 2012; He et al. Oncogene. 2005, 24 (18): 3054-3058.
(§3) These protocols employ a t-butyloxycarbonyl-modified Wnt5a-derived hexapeptide (Box5) that functions as a potent antagonist of Wnt5a (Jenei, et la., PNAS USA, 106 (46), 19473-8), and 6,7-dihydro -10alpha-hydroxy radicicol, a potent WNT-5A expression inhibitor with relatively low toxicity and excellent stability (Shinonaga et al. Bioorg Med Chem. 2009 Jul. 1; 17(13):4622-35).
(§4) These protocols employed OMP18R5 (a humanized monoclonal antibody that binds FZD5), Abcam ab52565 (a monoclonal antibody that binds FZD2), and cirmtuzumab (a humanized IgG1 anti-ROR1 monoclonal antibody), though an anti-human FZD5, FZD2 siRNA and ROR1 polyclonal and monoclonal antibodies, are commercially available from multiple sources, e.g. ThermoFisher Scientific, Abcam, SigmaAldrich, etc.); see also U.S. Pat. No. 9,573,998 for antibodies against human FZD5.

mouse = mouse model, inhibitor delivered locally by eye drops, IOP; type: in vivo
From the text: as §2, §3, §4

[2] = test system: human Schlemm's canal cells; assay: Fluo-4 staining of intracellular calcium signal; type: cell-based
From the text: (§5) FIGS. 2A-C. (A-C, top panels) Real-time quantitative PCR data showing the expression levels of PLCB1, PPP3R1 and NFATC3 in human Schlemm's canal cells are regulated by sheer stress (A), Wnt5a intervention via siRNAs (B), or Wnt5a stimulation (C). (A-C, lower panels) Representative images and summarized data of Fluo-4 staining showing intracellular calcium signal is regulated by sheer stress (A), Wnt5a intervention via siRNAs (B), or Wnt5a stimulation (C). Green: Fluo-4, blue: DAPI nuclear staining *P<0.05.
In exemplary models vivo data were obtained using well-established mouse model of glaucoma with laser-induced occlusion of episcleral veins (Zhang L, et al. Establishment and Characterization of an Acute Model of Ocular Hypertension by Laser-Induced Occlusion of Episcleral Veins. Invest Ophthalmol Vis Sci. 2017 Aug. 1; 58(10):3879-3886). Intraocular hypertension is introduced in the right eyes (OD) of the mice with the left eyes (OS) as controls. In these examples, the inhibitors or their controls were delivered daily to the right eyes via local administration of subconjunctival injection, starting from Day 1 after the induction of intraocular hypertension in the right eyes of the mice. Left eyes were used as controls. Central corneal thickness and RNFL were measured on Day 3 or Day 7 by in vivo OCT, respectively. All in vitro data were collected from human Schlemm's cells in culture.

[3] = test system: human Schlemm's canal cells; assay: real-time quantitative PCR of expression levels in human Schlemm's canal cells; type: cell-based
From the text: FIGS. 1A-G. (A-C) Real-time quantitative PCR data showing the expression levels of FZD5, ROR1 and FZD2 in human Schlemm's canal cells are regulated by sheer stress (A), Wnt5a intervention by small interference RNAs (siRNAs) (B), or Wnt5a stimulation (C). (D and E) Summarized data showing that tube formation of human Schlemm's canal cells was inhibited by FZD5 siRNA (D) or ROR1 siRNA (E), respectively. Scrambled siRNA was used as negative control. *P<0.05. (F and G) Representative images showing that tube formation of human Schlemm's canal cells are regulated by the intervention of FZD5 (F) or ROR1 (G) via siRNAs. *P<0.05.
as §5
FIGS. 3A-B. Real-time quantitative PCR data showing the expression of CAMK2D in human Schlemm's canal cells is regulated by sheer stress (A), or wnt5a stimulation (B), respectively. *P<0.05.
as §1, with “58(10):3879-3886). Intraocular hypertension is introduced in the right eyes (OD) of the mice with the left eyes (OS) as controls.” for “58(10):3879-3886).”

Q: How did the “tube formation of human Schlemm's canal cells” value [1] turn out when O=C(OC[C@H]1O[C@@H](OC(=O)c2cc(O)c(O)c(O)c2)[C@H](OC(=O)c2cc(O)c(O)c(O)c2)[C@@H](OC(=O)c2cc(O)c(O)c(O)c2)[C@@H]1OC(=O)c1cc(O)c(O)c(O)c1)c1cc(O)c(O)c(O)c1 [DB03208, Beta-1,2,3,4,6-Penta-O-Galloyl-D-Glucopyranose] was run?
A: inhibited

Q: For 6,7-dihydro -10alpha-hydroxy radicicol, which “therapy for pathogenic IOP” value (rabbit) is on record?
A: effective therapies

Q: What about the “therapy for pathogenic IOP” value (mouse) of the same molecule?
A: effective therapies

B1: Wnt5a: Wnt5a used to stimulate human SC cells (protein, UniProt P41221 62-380, looked up)
Protein Wnt-5a: IIGAQPLCSQLAGLSQGQKKLCHLYQDHMQYIGEGAKTGIKECQYQFRHRRWNCSTVDNTSVFGRVMQIGSRETAFTYAVSAAGVVNAMSRACREGELSTCGCSRAARPKDLPRDWLWGGCGDNIDYGYRFAKEFVDARERERIHAKGSYESARILMNLHNNEAGRRTVYNLADVACKCHGVSGSCSLKTCWLQLADFRKVGDALKEKYDSAAAMRLNSRGKLVQVNSRFNSPTTQDLVYIDPSPDYCVRNESTGSLGTQGRLCNKTSEGMDGCELMCCGRGYDQFKTVQTERCHCKFHWCCYVKCKKCTEIVDQFVCK
Q: Which intracellular calcium signal [2] does the source give for B1 here?
A: regulated

Q: What about the “expression levels of FZD5, ROR1 and FZD2” value [3] of the same molecule?
A: regulated; also recorded: increased

Q: And the “expression levels of PLCB1, PPP3R1 and NFATC3” value [3]?
A: regulated

Q: What about the “expression of CAMK2D” value [3] of the same molecule?
A: regulated
